Here are results for two molecules from patent US8367815B2, “Modular polynucleotides for ligand-controlled regulatory systems” (California Institute of Technology, priority 2007, dated 2013).

Series [1] can be described thus: In-line probing of S4t under varying theophylline concentrations. It counts as binding. From the text: Individual bands from the in-line gel (FIG. 1B) were quantified and normalized to an adjacent constant region to remove bias from inconsistent well loading. C56 bands were normalized to U47 bands, while C74 bands were normalized to U100-G102 bands.
Applicants designed an initial shRNA switch (S1) to target EGFP and respond to theophylline by incorporating an EGFP-targeting guide strand and the theophylline aptamer (Zimmermann et al, 2000) into our switch platform (FIG. 1A). Applicants used in-line probing (Soukup and Breaker, 1999, incorporated herein by reference, and briefly described below) to assess the structural characteristics of a T7-transcribed variant similar to S1 (S4t; FIG. 1B). In-line probing provides structural information from the ligand dependence of spontaneous RNA cleavage. See Materials and Methods section below.
In-line probing. In-line probing was conducted as described previously (Soukup et al, 1999). After heating at 70° C. for 2 min followed by slow cooling to room temperature, 5′ radiolabeled RNAs ([…]) were incubated for 40 hours at 25° C. in varying amounts of theophylline with 50 mM Tris-HCl pH 8.5, 20 mM MgCl2. Reactions were terminated by adding an equal volume of loading buffer (10 M urea, 1.5 mM EDTA). The alkaline hydrolysis ladder was generated by incubating RNA in 50 mM NaHCO3/Na2CO3 pH 9.2, 1 mM EDTA for 6 min at 95° C. The G-specific cleavage ladder was generated by incubating RNA in 1 U RNase T1 (Ambion) with 20 mM sodium citrate pH 5.0, 1 mM EDTA, 7 M urea, and 3 μg yeast RNA for 25 min at 25° C. RNAs were resolved on an 8% denaturing polyacrylamide gel, dried for 90 min at 70° C., then visualized on an FX phosphorimager (BioRAD). Band quantification was performed using the Quantity One software package (BioRAD). To account for well loading variability, quantified band intensities were normalized to an adjacent band of similar intensity showing negligible theophylline dependence.

For series [2], the system named is La protein. As to the kind of experiment: qRT-PCR of La protein mRNA from transfected HEK293T tTA-d2EGFP cells. The class given is cell-based. How it is done:
(A) qRT-PCR of La protein mRNA from HEK293T tTA-d2EGFP cells transfected in the presence (▪) or absence (□) of 1.5 mM theophylline. […] Error bars represent quadruplicate qRT-PCR measurements. (B) Curve fit to extrapolate empirical parameters C1-3. Dashed line marks knockdown achieved by base shRNA. (C) Model predictions for dynamic range using empirical parameter values for the GFP experiments along with fshRNA=0.6 and e=0.72 (gray curve) and extrapolated values from the La experiments (black curve). (D) Relationship between dynamic range (η) and the free energy difference. The dashed line represents the apparent increase in La mRNA levels upon theophylline addition observed for the base shRNA (shL).
To examine the generality of shRNA switch design and functionality, Applicants designed a set of shRNA switches targeting the endogenous La protein. Following selection of an shRNA sequence that yields moderate knockdown of La as ascertained by qRT-PCR, various switching strand sequences covering a range of ΔG values were combined with the smaller theophylline aptamer to yield six shRNA switches (L1-6). […] As observed for the GFP-targeting shRNA switches, use of the stems method provided a suitable correlation between basal levels and ΔGmethod. Supplying the model with fit values for C1-3 yielded a predicted dynamic range trend that closely matched the experimental data. […]
(Quantitative PCR measures a nucleic acid by following its amplification.)

Values joined by “and” are separate entries in the source; they are usually repeats but may differ in a detail not shown here. Equal values may be shown once. Read-outs that look alike come from different tables or passages of the source.

B1: S4t: T7-transcribed variant similar to S1, used for in-line probing; SEQ ID NO: 51 (nucleic acid)
chain: GGGUCAGAUGAACUUCAGGGUCAGCUCGAGAUACCAGCAUCGACUCUUCGAUGCCCUUGGCAGCUCGGGCUGACCCUGCUAGAGCUGACCCUGAAUCAUCUGACCCUU
modifications: RNA, phosphodiester; further chemistry not fully specified
With B1, the “KComp solved from in-line assay results” value in series [1] (equation (4) with ratio of apparent KD to KD of aptamer alone) was found to be 0.06. Besides, the “ratio of the apparent KD to the KD of the aptamer alone” value in series [1] (theophylline) is recorded as ~17. The Kd was 3.6 µM in series [1] (theophylline, Michaelis-Menten fit, C56 bands normalized to U47, read-out: KD from in-line cleavage at C56); 6.8 µM in series [1] (theophylline, Michaelis-Menten fit, C74 bands normalized to U100-G102, read-out: KD from in-line cleavage at C74); ~5 µM and 5 µM in series [1] (theophylline, from quantifying cleavage products at two positions, read-out: apparent dissociation constant (KD)).

B2: shL: base shRNA targeting endogenous La protein; sequence in Table I (pCS1457) (nucleic acid)
chain: GGATCCGGCTTCCCAACGATGATGCAACTCCTCGAGTCTAGAGGAGTTGCATCAGTTGGGAAGCCTTTTTTGGAAGCTT
modifications: the letters are possibly those of the target site
On to B2, for which the “response of La mRNA levels to theophylline” value in series [2] (1.5 mM theophylline) was “not observed”. In series [2] (relative knockdown of La by base shRNA), the “fshRNA (La experiments)” value came to 0.6.
